Reference: publication PMC10202959

What was measured:
Experiment in all cases: ELISA; plates coated with 100 nM ECM protein in PBS (1 h, 37 °C), blocked with 1% BSA in PBS-T; PDGF-BB or IL-1Ra variants at increasing concentrations in PBS-T with 0.1% BSA, 1 h at room temperature; detected with biotinylated antibodies; one site specific binding model; n = 3
[1] = target: human plasma fibronectin (human)
human tenascin C (human) = human tenascin C (human) (UniProt P24821)
[2] = target: human vitronectin (human) (UniProt P04004)
human vitronectin (human), sequence (P04004 20-478): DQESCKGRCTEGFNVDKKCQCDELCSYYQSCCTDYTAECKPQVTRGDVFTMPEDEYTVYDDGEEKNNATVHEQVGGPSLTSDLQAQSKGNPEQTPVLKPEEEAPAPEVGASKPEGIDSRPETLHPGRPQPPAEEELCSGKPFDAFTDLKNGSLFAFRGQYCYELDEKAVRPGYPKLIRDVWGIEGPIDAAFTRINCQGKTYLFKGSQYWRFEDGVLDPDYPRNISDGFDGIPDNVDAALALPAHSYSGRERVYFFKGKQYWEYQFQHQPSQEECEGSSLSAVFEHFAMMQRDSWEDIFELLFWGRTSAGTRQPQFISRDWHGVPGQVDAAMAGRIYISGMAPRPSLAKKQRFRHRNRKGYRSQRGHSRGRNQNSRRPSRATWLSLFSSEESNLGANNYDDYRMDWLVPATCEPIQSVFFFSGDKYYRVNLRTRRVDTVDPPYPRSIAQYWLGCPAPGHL

human tenascin C (human), sequence (P24821 23-2201): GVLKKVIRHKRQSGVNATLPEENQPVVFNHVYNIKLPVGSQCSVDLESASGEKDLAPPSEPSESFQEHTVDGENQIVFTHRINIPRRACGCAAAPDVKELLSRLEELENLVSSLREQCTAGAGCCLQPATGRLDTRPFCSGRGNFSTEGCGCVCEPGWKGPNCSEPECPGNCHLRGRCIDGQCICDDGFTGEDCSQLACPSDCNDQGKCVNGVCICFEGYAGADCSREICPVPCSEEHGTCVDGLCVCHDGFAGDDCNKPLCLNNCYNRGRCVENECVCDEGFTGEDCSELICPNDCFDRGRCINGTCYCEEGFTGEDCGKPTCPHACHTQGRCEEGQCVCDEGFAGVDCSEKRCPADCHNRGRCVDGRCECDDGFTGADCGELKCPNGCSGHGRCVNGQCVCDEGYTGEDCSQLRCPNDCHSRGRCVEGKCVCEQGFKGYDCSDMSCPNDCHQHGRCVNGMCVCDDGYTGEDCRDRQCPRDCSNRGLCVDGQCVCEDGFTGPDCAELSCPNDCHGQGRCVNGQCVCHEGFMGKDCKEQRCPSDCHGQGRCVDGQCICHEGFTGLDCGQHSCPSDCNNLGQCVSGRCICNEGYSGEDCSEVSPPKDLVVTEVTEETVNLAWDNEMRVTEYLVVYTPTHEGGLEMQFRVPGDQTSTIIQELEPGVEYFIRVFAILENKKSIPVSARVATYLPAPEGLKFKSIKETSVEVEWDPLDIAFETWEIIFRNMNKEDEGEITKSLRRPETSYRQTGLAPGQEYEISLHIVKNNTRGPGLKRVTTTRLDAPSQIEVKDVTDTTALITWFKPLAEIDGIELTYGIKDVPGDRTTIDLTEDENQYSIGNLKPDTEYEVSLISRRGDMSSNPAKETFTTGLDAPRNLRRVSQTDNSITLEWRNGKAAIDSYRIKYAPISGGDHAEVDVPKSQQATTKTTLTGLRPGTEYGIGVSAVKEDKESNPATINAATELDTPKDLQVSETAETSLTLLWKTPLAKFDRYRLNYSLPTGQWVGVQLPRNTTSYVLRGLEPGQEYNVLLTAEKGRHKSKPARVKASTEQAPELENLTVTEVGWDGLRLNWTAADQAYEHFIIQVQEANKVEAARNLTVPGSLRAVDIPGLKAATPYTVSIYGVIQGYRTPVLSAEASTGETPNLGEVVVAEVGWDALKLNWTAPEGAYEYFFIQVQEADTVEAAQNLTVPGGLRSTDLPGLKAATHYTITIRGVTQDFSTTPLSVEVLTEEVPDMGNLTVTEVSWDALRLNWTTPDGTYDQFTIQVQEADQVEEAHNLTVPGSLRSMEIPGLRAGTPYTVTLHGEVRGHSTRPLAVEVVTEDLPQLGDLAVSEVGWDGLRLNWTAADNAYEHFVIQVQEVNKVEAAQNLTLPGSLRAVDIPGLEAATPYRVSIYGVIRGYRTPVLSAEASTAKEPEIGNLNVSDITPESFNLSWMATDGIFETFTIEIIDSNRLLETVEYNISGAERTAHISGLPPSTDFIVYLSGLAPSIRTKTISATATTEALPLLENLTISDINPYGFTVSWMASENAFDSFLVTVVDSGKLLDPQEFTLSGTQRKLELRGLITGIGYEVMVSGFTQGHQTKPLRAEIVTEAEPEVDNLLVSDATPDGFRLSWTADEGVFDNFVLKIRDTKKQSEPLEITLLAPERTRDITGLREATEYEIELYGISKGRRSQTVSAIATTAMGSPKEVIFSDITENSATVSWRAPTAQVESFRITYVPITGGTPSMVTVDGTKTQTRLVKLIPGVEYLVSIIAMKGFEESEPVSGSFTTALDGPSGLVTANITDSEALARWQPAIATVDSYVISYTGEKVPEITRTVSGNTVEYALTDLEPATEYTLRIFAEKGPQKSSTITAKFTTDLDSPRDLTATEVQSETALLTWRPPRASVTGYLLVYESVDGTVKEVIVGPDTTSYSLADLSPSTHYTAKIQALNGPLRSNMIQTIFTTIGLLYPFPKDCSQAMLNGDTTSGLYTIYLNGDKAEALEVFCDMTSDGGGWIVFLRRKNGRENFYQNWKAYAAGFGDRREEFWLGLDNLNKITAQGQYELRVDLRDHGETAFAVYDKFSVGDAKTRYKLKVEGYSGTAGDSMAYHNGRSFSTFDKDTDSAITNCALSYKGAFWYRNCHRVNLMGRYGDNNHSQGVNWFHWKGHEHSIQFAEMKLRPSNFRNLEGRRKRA

| Kd [1] [nM] | Kd (human tenascin C (human)) [nM] | Kd [2] [nM] | Substance |
| --- | --- | --- | --- |
| 16.5 | 18.6 | 1.9 | AREG26-38/IL-1Ra |
| 5.9 | 19.3 | 1.3 | AREG26-38/PDGF-BB |
